Test results published in patent publication US20230331852A1 (OSE IMMUNOTHERAPEUTICS, published 2023).

T1: recombinant human CLEC-1 protein with His Tag (#1704-CL R&D Systems) (human, UniProt Q8NC01 74-280)
T1 construct: Bought protein; also called His-CLEC1; His Clec-1; not shown: His tag
T1 sequence: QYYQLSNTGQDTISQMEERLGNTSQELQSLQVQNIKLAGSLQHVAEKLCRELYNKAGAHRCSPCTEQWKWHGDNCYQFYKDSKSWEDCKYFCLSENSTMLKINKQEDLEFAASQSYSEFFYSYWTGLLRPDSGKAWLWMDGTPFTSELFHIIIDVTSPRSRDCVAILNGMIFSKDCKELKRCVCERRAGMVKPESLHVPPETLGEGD

T2: Fc-CLEC1 labelled with Alexa Fluor 488 (human, Alexa Fluor 488 label (sites not given))
T2 construct: also called Fc-CLEC1-A488; Alexa488-Fc-Clec-1
T2 chain: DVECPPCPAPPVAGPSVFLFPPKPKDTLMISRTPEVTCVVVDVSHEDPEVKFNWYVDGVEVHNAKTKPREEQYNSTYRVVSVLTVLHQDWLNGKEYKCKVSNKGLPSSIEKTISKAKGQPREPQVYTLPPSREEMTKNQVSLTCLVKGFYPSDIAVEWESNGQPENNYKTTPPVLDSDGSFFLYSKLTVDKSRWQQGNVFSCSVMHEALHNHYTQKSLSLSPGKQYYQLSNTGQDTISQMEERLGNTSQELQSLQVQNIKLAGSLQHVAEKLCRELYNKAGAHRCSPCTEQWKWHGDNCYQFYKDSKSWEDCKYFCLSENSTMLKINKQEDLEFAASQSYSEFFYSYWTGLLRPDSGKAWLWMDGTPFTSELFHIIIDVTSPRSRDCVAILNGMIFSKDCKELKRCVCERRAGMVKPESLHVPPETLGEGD

T3: human CLEC-1A expressed on the cell membrane (human, UniProt Q8NC01 1-280)
T3 construct: Endogenous on human U266 myeloma cells, on monocyte-derived TGFb-DC and macrophages; on CHO cells after transduction with a Clec-1 expressing lentivirus; also called U266 CLEC1; CLEC-1A on U266 cells
T3 sequence: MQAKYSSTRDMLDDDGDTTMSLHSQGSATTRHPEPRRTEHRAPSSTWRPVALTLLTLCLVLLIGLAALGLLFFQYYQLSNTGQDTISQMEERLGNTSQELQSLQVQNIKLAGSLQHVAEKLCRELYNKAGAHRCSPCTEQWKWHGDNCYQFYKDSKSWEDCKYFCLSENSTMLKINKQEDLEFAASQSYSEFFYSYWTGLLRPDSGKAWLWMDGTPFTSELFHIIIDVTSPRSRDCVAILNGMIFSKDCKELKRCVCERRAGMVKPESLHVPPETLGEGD


Legend:
[1] = biological target: T1, recombinant human CLEC-1 protein with …; test: ELISA on immobilised human His-CLEC1 (column hm His Clec); given as ED50
Procedure: Method: The binding activity of the anti-hCLEC1 antibodies was assessed by ELISA (Enzyme-linked immunosorbent assay). […] A second ELISA assays was performed, like above, with immobilization of CLEC1-Fc (OSE Immunotherapeutics) at 2 μg/ml. A third ELISA assays was performed to see the cross-reactivity with mouse CLEC1. Like above, ELISA was made with immobilization of mouse Fc-CLEC1 (OSE Immunotherapeutics) at 2 μg/ml in carbonate buffer instead of His-Clec. Purified antibodies were added at different concentrations to measure binding. […] Control antibody is a commercial anti-CLEC-1A antibody.

[2] = biological target: T2, Fc-CLEC1 labelled with Alexa Fluor 488; test: FACS competition: blocks Fc-CLEC1-A488 (20 nM) binding to CLEC-1 ligand on permeabilised Raji cells; read-out Mean
Procedure: (§1) Methods. To measure competition on permeabilised Raji (CytoFix/cytoperm kit, BD Biosciences) which expressed CLEC1 ligand, Fc-CLEC1-labelled A488 which bound specifically to permeabilised Raji was used. To measure competition, Fc-CLEC1 labelled A488 at 10 nM or 20 nM was mixed with mouse anti-hCLEC1 at different concentrations for 15 min at RT then added on these cells for 30 min at 4° C. […] To measure competition on PMBC, we used human PBMC pre-treated by UV for 18 h to obtain apoptotic PBMC, which expressed CLEC1 ligand. Fc-CLEC1-labelled A488 bound specifically apoptotic UV-treated PBMC. To measure competition, Fc-CLEC1 labelled A488 at 10 nM was mixed with mouse anti-hCLEC1 at different concentrations for 15 min at RT then added on these cells for 30 min at 4° C.

[3] = biological target: T3, human CLEC-1A expressed on the cell …; test: flow cytometry on U266 cells; printed as ED50, read-out Mean
[4] = biological target: T3, human CLEC-1A expressed on the cell …; test: flow cytometry on U266 cells; printed as ED50, read-out % + cells
[5] = biological target: T2, Fc-CLEC1 labelled with Alexa Fluor 488; test: FACS competition: blocks Fc-CLEC1-A488 (10 nM) binding to CLEC-1 ligand on UV-treated PBMC; read-out % + cells
Procedure: as §1

[6] = biological target: T2, Fc-CLEC1 labelled with Alexa Fluor 488; test: FACS competition: blocks Fc-CLEC1-A488 (10 nM) binding to CLEC-1 ligand on permeabilised Raji cells; read-out % + cells
Procedure: as §1

[7] = biological target: T2, Fc-CLEC1 labelled with Alexa Fluor 488; test: FACS competition: blocks Fc-CLEC1-A488 (10 nM) binding to CLEC-1 ligand on permeabilised Raji cells; read-out Mean
Procedure: as §1

[8] = biological target: T2, Fc-CLEC1 labelled with Alexa Fluor 488; test: FACS competition: blocks Fc-CLEC1-A488 (10 nM) binding to CLEC-1 ligand on UV-treated PBMC; read-out Mean
Procedure: as §1

[9] = biological target: T2, Fc-CLEC1 labelled with Alexa Fluor 488; test: FACS competition: blocks Fc-CLEC1-A488 (20 nM) binding to CLEC-1 ligand on permeabilised Raji cells; read-out % + cells
Procedure: as §1

[10] = biological target: T1, recombinant human CLEC-1 protein with …; test: Blitz biolayer interferometry, His-CLEC1 on Ni-NTA biosensor, antibody at 20 ug/mL
Procedure: Analysis was performed with a BLItz System (Fortébio, #C22-2 No 61010-1, Molecular Devices, San José, USA).
The affinity of the anti-hCLEC1 antibodies, was measured with Blitz system (Forté Bio, C22-2 No 61010-1).

| EC50 [1] | IC50 [2] | EC50 [3] | EC50 [4] | IC50 [5] | IC50 [6] | IC50 [7] | IC50 [8] | IC50 [9] | Kd [10] | koff [10] | kon [10] | Binder |
| --- | --- | --- | --- | --- | --- | --- | --- | --- | --- | --- | --- | --- |
| 0.012 µg/mL | 1.7 µg/mL | 0.17 µg/mL | 0.051 µg/mL | 2 µg/mL | 19 µg/mL | 1.7 µg/mL | 2.2 µg/mL | 1.5 µg/mL | 14.7 nM | 0.000934 s⁻¹ | 63400 M⁻¹ s⁻¹ | murine anti-hCLEC1 antibody 6C5-A4 (antibody, V domains shown, Mouse hybridoma antibody) VH: QVQLQQSGPELVKPGASVKMSCKASGYTFTDYVISWVKQKTGQGLEWIGEIYPGSGNTYYNEKFKGKATLTADKSSSTAYIHLSSLTSEDSAVYFCAGGGSSHFDYWGQGTTLTVSS VL: not shown |
| 0.157 µg/mL | 2.5 µg/mL | 0.072 µg/mL | 0.0065 µg/mL | 0.031 µg/mL | 3.2 µg/mL | 0.84 µg/mL | 3.1 µg/mL | 22 µg/mL | 8.24 nM | 0.00074 s⁻¹ | 89800 M⁻¹ s⁻¹ | murine anti-hCLEC1 antibody 14H9-F3 (antibody, V domains shown, Mouse hybridoma antibody) VH: QVQLKESGPGLVAPSQSLSITCTISGFSLTTYGIHWVRQPPGKGLEWLVVIWSDGSTIYNSALKSRLSISKDNSKSQVFLKMNSLQTDDTAIYYCARHGGYYNYFDYWGQGTTLTVSS VL: DIQMNQSPSSLSASLGDTITITCHASQNINVWLSWYQQKPGNIPKLLIYKASNLHTGVPSRFSGSGSGTTFTLTIDSLQPEDIATYYCQQGQSYWTFGGGTKLEIK |
| 1.31 µg/mL | 3.1 µg/mL | 0.12 µg/mL | 0.0064 µg/mL | 0.13 µg/mL | 12 µg/mL | 4.4 µg/mL | 3.8 µg/mL | 0.21 µg/mL | 16.1 nM | 0.00124 s⁻¹ | 76600 M⁻¹ s⁻¹ | murine anti-hCLEC1 antibody 5D1-A5 (antibody, V domains shown, Mouse hybridoma antibody) VH: QVQLKESGPGLVAPSQSLSITCTISGFSLTSYGVHWVRQPPGKGLEWLVVIWSDGSTIYNSALKSRLSISKDNSKSQVFLKMNSLQTDDTAMYYCARHGGYYNYFDYWGQGTTLTVSS VL: DIQMNQSPSSLSASLGDTITITCHASQNINVWLSWYQQKPGNIPKLLIYKASNLHTGVPSRFSGSGSGTGFTLTISSLQPEDIATYYCQQGQSYWTFGGGTKLEIK |
| 0.0128 µg/mL | 2.5 µg/mL | 0.22 µg/mL | 0.034 µg/mL | 0.79 µg/mL | 11 µg/mL | 2.1 µg/mL | 2.8 µg/mL | 0.82 µg/mL | 5.72 nM | 0.000621 s⁻¹ | 109000 M⁻¹ s⁻¹ | murine anti-hCLEC1 antibody 10F4-H2 (antibody, V domains shown, Mouse hybridoma antibody) VH: QVQLQQSGTELARPGASVKMSCKASGYIFTDYTIHWVKQRPGQGLEWVGYINPSSGYTNYNQKFKAKATLTADKSSSTAYMQLSSLTSEDSAVYYCTPMFRRSYFDYWGQGTTLTVSS VL: DAVMTQTPLSLPVSLGDQASISCRSSQSLENSNGNTYLNWYLQKPGQSPQLLIYRVSNRFSGVLDRFSGSGSGTDFTLKISRVEAEDLGVYFCLQVTHVPYTFGGGTKLEIK |
| 0.0466 µg/mL | 3 µg/mL | 0.59 µg/mL | 0.074 µg/mL | 0.69 µg/mL | 7.7 µg/mL | 1.3 µg/mL | 4.5 µg/mL | 14 µg/mL | 14 nM | 0.00101 s⁻¹ | 72200 M⁻¹ s⁻¹ | murine anti-hCLEC1 antibody 15E3-G3 (antibody, V domains shown, Mouse hybridoma antibody) VH: QVQLQQSGPELVKPGASVKMSCKASGFTFTDYVIAWVKVRTGQGLEWIGEIYPGSGSIYYNEKFKGKATLTADKSSNTAYMQLSSLTSEDSAVYFCASSTVVAFDYWGQGTTLTVSS VL: EIVLTQSPTTLAASPGEKIIITCSDSSSISSNYLHWYQQKPGFSPKLLIYGTSNLASGVPARFSGSGSGTTYSLTIGTMEAEDVATYYCQQGSSIPRTFGGGTKLEIK |
